From patent US20240254190A1 (published 2024) come the findings set out here.

Common to all, as to assay: cytokine release
Test [1] addresses T1, p53 C135Y peptide on HLA-DQA1*01:01 / HLA-DQB1*05:01 (human).
T1 peptide: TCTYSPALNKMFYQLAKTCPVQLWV

The target of test [2] is T2, p53 C135Y peptide on HLA-DQA1*01:01 / HLA-DQB1*02:02 (human).
T2 peptide: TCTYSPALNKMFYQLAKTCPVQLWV

Test [3] concerns the target T3, p53 C135Y peptide on HLA-DPA1*02:01 / HLA-DPB1*02:01 (human).
T3 peptide: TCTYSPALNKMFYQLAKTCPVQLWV

Test [4] concerns the target T4, p53 C135Y peptide on HLA-DRA*01:01 / HLA-DRB1*07:01 (human).
T4 peptide: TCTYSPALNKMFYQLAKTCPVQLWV

The target in test [5] is T5, p53 C135Y peptide on HLA-DPA1*01:03 / HLA-DPB1*02:01 (human).
T5 peptide: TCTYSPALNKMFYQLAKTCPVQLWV

Test [6] deals with T6, p53 wild type peptide on HLA-DRA*01:01 / HLA-DRB1*07:01 (human).
T6 peptide: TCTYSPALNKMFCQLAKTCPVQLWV

The target in test [7] is T7, p53 C135Y peptide on HLA-DQA1*02:01 / HLA-DQB1*02:01 (human).
T7 peptide: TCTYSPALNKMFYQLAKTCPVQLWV

In test [8] the target is T8, p53 C135Y peptide on HLA-DQA1*02:01 / HLA-DQB1*05:01 (human).
T8 peptide: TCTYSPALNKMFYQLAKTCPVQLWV

Test [9] concerns the target T9, p53 C135Y peptide on HLA-DPA1*01:03 / HLA-DPB1*11:01 (human).
T9 peptide: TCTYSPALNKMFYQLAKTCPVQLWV

Test [10] concerns the target T10, p53 C135Y peptide on HLA-DRA*01:01 / HLA-DRB3*01:01 (human).
T10 peptide: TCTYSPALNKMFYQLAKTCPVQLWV

Test [11] addresses T11, p53 C135Y peptide on HLA-DQA1*01:01 / HLA-DQB1*02:01 (human).
T11 peptide: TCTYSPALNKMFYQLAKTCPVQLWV

For test [12], the target named is T12, p53 C135Y peptide on HLA-DPA1*02:01 / HLA-DPB1*11:01 (human).
T12 peptide: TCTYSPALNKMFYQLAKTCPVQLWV

In test [13] the target is T13, p53 C135Y peptide on HLA-DQA1*02:01 / HLA-DQB1*02:02 (human).
T13 peptide: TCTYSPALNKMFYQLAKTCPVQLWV

Test [14] deals with T14, p53 C135Y peptide on HLA-DQA*01:01 / HLA-DRB4*01:01 (human).
T14 peptide: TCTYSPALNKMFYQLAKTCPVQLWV

For test [15], the target named is T15, p53 R175H peptide on HLA-C*07:01 (human).
T15 peptide: HMTEVVRHC

Test [16] addresses T16, p53 R175H peptide on HLA-B*08:01 (human).
T16 peptide: HMTEVVRHC

The target in test [17] is T17, p53 R175H peptide on HLA-A*23:01 (human).
T17 peptide: HMTEVVRHC

Test [18] has as its target T18, p53 R175H peptide on HLA-C*04:01 (human).
T18 peptide: HMTEVVRHC

Test [19] deals with T19, p53 R175H peptide on HLA-B*44:03 (human).
T19 peptide: HMTEVVRHC

The target in test [20] is T20, p53 wild type peptide on HLA-A*02:01 (human).
T20 peptide: HMTEVVRRC

Test [21] concerns the target T21, p53 wild type peptide on HLA-DRA*01:01 / HLA-DRB1*01:01 (human).
T21 peptide: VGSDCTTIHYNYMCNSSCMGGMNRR

Positions count from the first letter of the chain named.

B1: 4316-D TCR (TCR, V domains shown)
Valpha: QQVMQIPQYQHVQEGEDFTTYCNSSTTLSNIQWYKQRPGGHPVFLIQLVKSGEVKKQKRLTFQFGEAKKNSSLHITATQTTDVGTYFCAESYSGGYQKVTFGIGTKLQVIP
Vbeta: EPEVTQTPSHQVTQMGQEVILRCVPISNHLYFYWYRQILGQKVEFLVSFYNNEISEKSEIFDDQFSVERPDGSNFTLKIRSTKLEDSAMYFCASSSFSNEQFFGPGTRLTVL
B1: the binding result is reported as “no recognition” in test [1]; “no recognition” in test [2]; “no recognition” in test [3]; “recognises” in [4]; “no recognition” in [5]; “no recognition” in [6]. Moreover, the binding result in test [7], in test [8], in test [9], in test [10], in test [11] and in test [12] was “no recognition” each time. Moreover, the binding result in [13] and in test [14] was “no recognition” throughout.

B2: 4141 IVS TCR (TCR, V domains shown)
Valpha: QTVTQSQPEMSVQEAETVTLSCTYDTSENNYYLFWYKQPPSRQMILVIRQEAYKQQNATENRFSVNFQKAAKSFSLKISDSQLGDTAMYFCAFMAYMEYGNKLVFGAGTILRVKS
Vbeta: B1 Vbeta with S94C, S95K, S96G, F97I, S98T, N99D, E100T, F102Y
Take B2: the binding result in [15], in [16], in test [17], in test [18], in test [19] and in [20] was “no recognition” in each case.

B3: 4304 TCR-2 (TCR, V domains shown)
Valpha: QSVSQHNHHVILSEAASLELGCNYSYGGTVNLFWYVQYPGQHLQLLLKYFSGDPLVKGIKGFEAEFIKSKFSFNLRKPSVQWSDTAEYFCAVTFMDTGRRALTFGSGTRLQVQP
Vbeta: GVSQSPSNKVTEKGKDVELRCDPISGHTALYWYRQSLGQGLEFLIYFQGNSAPDKSGLPSDRFSAERTGGSVSTLTIQRTQQEDSAVYLCASSPRGGDYEQYFGPGTRLTVT
For the molecule B3, in [21], the binding result is reported as “no recognition”.

B4: 4304 TCR-K (TCR, V domains shown)
Valpha: KDQVFQPSTVASSEGAVVEIFCNHSVSNAYNFFWYLHFPGCAPRLLVKGSKPSQQGRYNMTYERFSSSLLILQVREADAAVYYCAVSGYQLIWGAGTKLIIKP
Vbeta: GVAQSPRYKIIEKRQSVAFWCNPISGHATLYWYQQILGQGPKLLIQFQNNGVVDDSQLPKDRFSAERLKGVDSTLKIQPAKLEDSAVYLCASSLDRRGGRETQYFGPGTRLLVL
In the case of B4, the binding result in [21] is given as “no recognition”.

B5: 4304 TCR-4 (TCR, V domains shown)
Valpha: QKEVEQNSGPLSVPEGAIASLNCTYSDRGSQSFFWYRQYSGKSPELIMFIYSNGDKEDGRFTAQLNKASQYVSLLIRDSQPSDSATYLCAVRGGNTGFQKLVFGTGTRLLVSP
Vbeta: AVISQKPSRDICQRGTSLTIQCQVDSQVTMMFWYRQQPGQSLTLIATANQGSEATYESGFVIDKFPISRPNLTFSTLTVSNMSPEDSSIYLCSVRSEDTQYFGPGTRLTVL
On to B5, for which the binding result in test [21] was “no recognition”.
